This note sets out measurements from the Human Domainome abundance scans (Beltran et al. 2025).

± gives the uncertainty stated by the source.

B1: Nuclear receptor subfamily 4 group A member 2, residues 260 to 336; numbered along this chain, P43354 (parent)
chain: EGLCAVCGDNAACQHYGVRTCEGCKGFFKRTVQKNAKYVCLANKNCPVDKRRRNRCQYCRFQKCLAVGMVKEVVRTD

In the data set the parent is B1. Kind of data set: abundance fitness (aPCA) (normalised: wild type 0, dead -1); higher = more abundant; growth selection in yeast, the domain comes from the species named. The settings on record: Homo sapiens.
As for EGLCAVCGDNAACQHYGVRTCEGCKGFFKRTVQKNAKYVCLANKNCPVDKRRRERCQYCRFQKCLAVGMVKEVVRTD [N54E], the abundance fitness was -0.244 ± 0.24.

As to EGLCAVCGDNAACQHYGVRTCEGCKGFFKRTVQKNAKYVCLANKNCPVDKRRRDRCQYCRFQKCLAVGMVKEVVRTD [N54D], the abundance fitness was found to be 0.135 ± 0.2.

As for EGLCAVCGDNAACQHYGVRTCEGCKGFFKRTVQKNAKYVCLANKNCPVDKRRRVRCQYCRFQKCLAVGMVKEVVRTD [N54V], the abundance fitness is -0.094 ± 0.052.

For the variant EGLCAVCGDNAACQHYGVRTCEGCKGFFKRTVQKNAKYVCLANKNCPVDKRRRQRCQYCRFQKCLAVGMVKEVVRTD [N54Q], the abundance fitness was -0.032 ± 0.24.

As to EGLCAVCGDNAACQHYGVRTCEGCKGFFKRTVQKNAKYVCLANKNCPVDKRRRLRCQYCRFQKCLAVGMVKEVVRTD [N54L], the abundance fitness is -0.123 ± 0.065.

As to EGLCAVCGDNAACQHYGVRTCEGCKGFFKRTVQKNAKYVCLANKNCPVDKRRRRRCQYCRFQKCLAVGMVKEVVRTD [N54R], the abundance fitness is -0.15 ± 0.11.

Take EGLCAVCGDNAACQHYGVRTCEGCKGFFKRTVQKNAKYVCLANKNCPVDKRRRFRCQYCRFQKCLAVGMVKEVVRTD [N54F]: the abundance fitness is -0.143 ± 0.12.

Consider EGLCAVCGDNAACQHYGVRTCEGCKGFFKRTVQKNAKYVCLANKNCPVDKRRRCRCQYCRFQKCLAVGMVKEVVRTD [N54C], for which the abundance fitness is -0.472 ± 0.11.

EGLCAVCGDNAACQHYGVRTCEGCKGFFKRTVQKNAKYVCLANKNCPVDKRRRARCQYCRFQKCLAVGMVKEVVRTD [N54A]: the abundance fitness was -0.148 ± 0.14.

EGLCAVCGDNAACQHYGVRTCEGCKGFFKRTVQKNAKYVCLANKNCPVDKRRRGRCQYCRFQKCLAVGMVKEVVRTD [N54G]: the abundance fitness was determined as 0.06 ± 0.038.

As for EGLCAVCGDNAACQHYGVRTCEGCKGFFKRTVQKNAKYVCLANKNCPVDKRRRIRCQYCRFQKCLAVGMVKEVVRTD [N54I], the abundance fitness stood at 0.164 ± 0.43.

Regarding EGLCAVCGDNAACQHYGVRTCEGCKGFFKRTVQKNAKYVCLANKNCPVDKRRRTRCQYCRFQKCLAVGMVKEVVRTD [N54T], the abundance fitness is -0.555 ± 0.47.

For EGLCAVCGDNAACQHYGVRTCEGCKGFFKRTVQKNAKYVCLANKNCPVDKRRRWRCQYCRFQKCLAVGMVKEVVRTD [N54W], the abundance fitness is -0.015 ± 0.061.

As for EGLCAVCGDNAACQHYGVRTCEGCKGFFKRTVQKNAKYVCLANKNCPVDKRRRSRCQYCRFQKCLAVGMVKEVVRTD [N54S], the abundance fitness turned out to be 0.148 ± 0.091.

Turning to EGLCAVCGDNAACQHYGVRTCEGCKGFFKRTVQKNAKYVCLANKNCPVDKRRRPRCQYCRFQKCLAVGMVKEVVRTD [N54P], the abundance fitness is -0.34 ± 0.43.

For EGLCAVCGDNAACQHYGVRTCEGCKGFFKRTVQKNAKYVCLANKNCPVDKRRRNCCQYCRFQKCLAVGMVKEVVRTD [R55C], the abundance fitness was -0.028 ± 0.076.

On to EGLCAVCGDNAACQHYGVRTCEGCKGFFKRTVQKNAKYVCLANKNCPVDKRRRNECQYCRFQKCLAVGMVKEVVRTD [R55E], for which the abundance fitness was -0.035 ± 0.12.

Regarding EGLCAVCGDNAACQHYGVRTCEGCKGFFKRTVQKNAKYVCLANKNCPVDKRRRNDCQYCRFQKCLAVGMVKEVVRTD [R55D], the abundance fitness was -0.065 ± 0.13.

Turning to EGLCAVCGDNAACQHYGVRTCEGCKGFFKRTVQKNAKYVCLANKNCPVDKRRRNACQYCRFQKCLAVGMVKEVVRTD [R55A], the abundance fitness is -0.134 ± 0.081.

For EGLCAVCGDNAACQHYGVRTCEGCKGFFKRTVQKNAKYVCLANKNCPVDKRYRNRCQYCRFQKCLAVGMVKEVVRTD [R52Y], the abundance fitness turned out to be 0.204 ± 0.47.

With EGLCAVCGDNAACQHYGVRTCEGCKGFFKRTVQKNAKYVCLANKNCPVDKRSRNRCQYCRFQKCLAVGMVKEVVRTD [R52S], the abundance fitness was -0.31 ± 0.14.

With EGLCAVCGDNAACQHYGVRTCEGCKGFFKRTVQKNAKYVCLANKNCPVDKRWRNRCQYCRFQKCLAVGMVKEVVRTD [R52W], the abundance fitness turned out to be 0.01 ± 0.063.

With EGLCAVCGDNAACQHYGVRTCEGCKGFFKRTVQKNAKYVCLANKNCPVDKRVRNRCQYCRFQKCLAVGMVKEVVRTD [R52V], the abundance fitness is -0.021 ± 0.043.

With EGLCAVCGDNAACQHYGVRTCEGCKGFFKRTVQKNAKYVCLANKNCPVDKRRDNRCQYCRFQKCLAVGMVKEVVRTD [R53D], the abundance fitness was -0.175 ± 0.18.

Turning to EGLCAVCGDNAACQHYGVRTCEGCKGFFKRTVQKNAKYVCLANKNCPVDKRRCNRCQYCRFQKCLAVGMVKEVVRTD [R53C], the abundance fitness is -0.078 ± 0.061.

As to EGLCAVCGDNAACQHYGVRTCEGCKGFFKRTVQKNAKYVCLANKNCPVDKRRLNRCQYCRFQKCLAVGMVKEVVRTD [R53L], the abundance fitness is -0.12 ± 0.061.

Turning to EGLCAVCGDNAACQHYGVRTCEGCKGFFKRTVQKNAKYVCLANKNCPVDKRRSNRCQYCRFQKCLAVGMVKEVVRTD [R53S], the abundance fitness is 0.084 ± 0.084.

For EGLCAVCGDNAACQHYGVRTCEGCKGFFKRTVQKNAKYVCLANKNCPVDKRRQNRCQYCRFQKCLAVGMVKEVVRTD [R53Q], the abundance fitness amounted to 0.172 ± 0.3.

In the case of EGLCAVCGDNAACQHYGVRTCEGCKGFFKRTVQKNAKYVCLANKNCPVDKRRINRCQYCRFQKCLAVGMVKEVVRTD [R53I], the abundance fitness was -0.043 ± 0.22.

As to EGLCAVCGDNAACQHYGVRTCEGCKGFFKRTVQKNAKYVCLANKNCPVDKRRMNRCQYCRFQKCLAVGMVKEVVRTD [R53M], the abundance fitness is -0.28 ± 0.25.

Regarding EGLCAVCGDNAACQHYGVRTCEGCKGFFKRTVQKNAKYVCLANKNCPVDKRRVNRCQYCRFQKCLAVGMVKEVVRTD [R53V], the abundance fitness came to 0.019 ± 0.042.

As for EGLCAVCGDNAACQHYGVRTCEGCKGFFKRTVQKNAKYVCLANKNCPVDKRRYNRCQYCRFQKCLAVGMVKEVVRTD [R53Y], the abundance fitness is -0.3 ± 0.37.

Regarding EGLCAVCGDNAACQHYGVRTCEGCKGFFKRTVQKNAKYVCLANKNCPVDKRRENRCQYCRFQKCLAVGMVKEVVRTD [R53E], the abundance fitness was -0.034 ± 0.12.

As for EGLCAVCGDNAACQHYGVRTCEGCKGFFKRTVQKNAKYVCLANKNCPVDKRRFNRCQYCRFQKCLAVGMVKEVVRTD [R53F], the abundance fitness is -0.101 ± 0.088.

For the variant EGLCAVCGDNAACQHYGVRTCEGCKGFFKRTVQKNAKYVCLANKNCPVDKRRGNRCQYCRFQKCLAVGMVKEVVRTD [R53G], the abundance fitness is 0.06 ± 0.037.

In the case of EGLCAVCGDNAACQHYGVRTCEGCKGFFKRTVQKNAKYVCLANKNCPVDKRRANRCQYCRFQKCLAVGMVKEVVRTD [R53A], the abundance fitness was 0.078 ± 0.11.
